What is called pKd is the Kd on a negative log10 scale, so that one unit is a factor of ten. A word on the koff: it is the first-order rate constant of dissociation. The kon is the rate constant with which the complex forms.

We go through seven substances from US20160130361A1.

Experiment [1] addresses BDD rFVIII (B domain deleted recombinant Factor VIII) (human) (UniProt P00451). In words: SPR (ProteOn XPR36), mean of triplicate.
The target in experiment [2] is rFVIIIFc. As to the kind of experiment: SPR (ProteOn XPR36), mean of triplicate.
Experiment [3] deals with BDD rFVIII (B domain deleted recombinant Factor VIII) (human) (UniProt P00451). As to the kind of experiment: method not printed on the sheet or in the legend (affinities of Example 3 are by SPR); SD 0.0073 printed in the same row. For orientation: Surface plasmon resonance follows binding to a sensor surface in real time, without labels.
The target in experiment [4] is rFVIIIFc. As to the kind of experiment: method not printed on the sheet or in the legend (affinities of Example 3 are by SPR); SD 0.0023 printed in the same row.
The target in experiment [5] is BDD rFVIII (B domain deleted recombinant Factor VIII) (human) (UniProt P00451). As to the kind of experiment: SPR, ProteOn XPR36; run 2 of 3 (middle panel) [continued].
In experiment [6] the target is rFVIIIFc. The experiment is described as above.
In experiment [7] the target is BDD rFVIII (B domain deleted recombinant Factor VIII) (human) (UniProt P00451). As to the kind of experiment: SPR, ProteOn XPR36; run 1 of 3 (top panel) [continued].
Experiment [8] has as its target rFVIIIFc. The experiment is described as above.
Experiment [9] deals with BDD rFVIII (B domain deleted recombinant Factor VIII) (human) (UniProt P00451). In words: SPR, ProteOn XPR36; run 3 of 3 (bottom panel) [continued].
Experiment [10] concerns the target rFVIIIFc. The description is as above.
The target in experiment [11] is BDD rFVIII (B domain deleted recombinant Factor VIII) (human) (UniProt P00451). In words: SPR, ProteOn XPR36; run 2 of 3 (middle panel).
Experiment [12] deals with rFVIIIFc. In words: SPR, ProteOn XPR36; run 2 of 3 (middle panel).
Experiment [13] deals with BDD rFVIII (B domain deleted recombinant Factor VIII) (human) (UniProt P00451). In words: SPR, ProteOn XPR36; run 3 of 3 (bottom panel).
The target in experiment [14] is rFVIIIFc. In words: SPR, ProteOn XPR36; run 3 of 3 (bottom panel).
Experiment [15] deals with BDD rFVIII (B domain deleted recombinant Factor VIII) (human) (UniProt P00451). In words: SPR, ProteOn XPR36; run 1 of 3 (top panel).
The target in experiment [16] is rFVIIIFc. As to the kind of experiment: SPR, ProteOn XPR36; run 1 of 3 (top panel).

pKd: −log10 of the molar value.

UniProt P00451, sequence (P00451 other isoform, or with tags, fused parts or gaps): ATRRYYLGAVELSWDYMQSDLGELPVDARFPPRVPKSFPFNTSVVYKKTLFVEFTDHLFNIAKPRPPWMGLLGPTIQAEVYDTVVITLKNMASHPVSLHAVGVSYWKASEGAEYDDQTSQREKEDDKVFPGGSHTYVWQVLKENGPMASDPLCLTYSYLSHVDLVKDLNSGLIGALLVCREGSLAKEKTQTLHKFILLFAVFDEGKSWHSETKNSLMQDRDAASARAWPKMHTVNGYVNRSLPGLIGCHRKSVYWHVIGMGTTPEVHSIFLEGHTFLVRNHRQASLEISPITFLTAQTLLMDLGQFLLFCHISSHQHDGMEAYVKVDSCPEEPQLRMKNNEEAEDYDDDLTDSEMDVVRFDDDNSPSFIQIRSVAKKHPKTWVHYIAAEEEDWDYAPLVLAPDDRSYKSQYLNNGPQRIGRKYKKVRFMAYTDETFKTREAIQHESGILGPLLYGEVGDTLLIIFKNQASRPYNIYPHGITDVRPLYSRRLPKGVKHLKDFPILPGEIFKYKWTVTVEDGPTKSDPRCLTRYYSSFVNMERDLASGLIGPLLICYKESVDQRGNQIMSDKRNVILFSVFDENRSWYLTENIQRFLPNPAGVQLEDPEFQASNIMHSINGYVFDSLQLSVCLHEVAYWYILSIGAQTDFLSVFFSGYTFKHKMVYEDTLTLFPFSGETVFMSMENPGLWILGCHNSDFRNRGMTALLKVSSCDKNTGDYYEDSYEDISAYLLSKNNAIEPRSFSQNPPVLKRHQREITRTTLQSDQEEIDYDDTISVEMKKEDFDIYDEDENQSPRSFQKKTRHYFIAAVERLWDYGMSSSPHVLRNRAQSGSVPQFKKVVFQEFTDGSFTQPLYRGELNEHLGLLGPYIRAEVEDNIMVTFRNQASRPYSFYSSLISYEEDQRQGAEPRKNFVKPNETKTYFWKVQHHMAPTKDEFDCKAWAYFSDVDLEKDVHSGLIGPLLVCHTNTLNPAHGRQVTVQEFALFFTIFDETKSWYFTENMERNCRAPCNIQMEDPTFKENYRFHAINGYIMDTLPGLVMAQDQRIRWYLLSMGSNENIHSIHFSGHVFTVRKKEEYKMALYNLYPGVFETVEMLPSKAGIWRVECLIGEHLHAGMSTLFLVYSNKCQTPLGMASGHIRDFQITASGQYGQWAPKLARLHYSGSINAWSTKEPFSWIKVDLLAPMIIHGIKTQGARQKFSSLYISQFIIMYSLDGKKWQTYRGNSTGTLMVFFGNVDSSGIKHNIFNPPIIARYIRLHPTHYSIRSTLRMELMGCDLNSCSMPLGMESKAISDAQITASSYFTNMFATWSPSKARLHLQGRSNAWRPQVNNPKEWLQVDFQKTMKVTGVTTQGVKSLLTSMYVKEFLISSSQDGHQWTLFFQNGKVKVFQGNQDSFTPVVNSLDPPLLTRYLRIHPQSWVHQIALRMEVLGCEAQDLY

ESH4 (antibody): the pKd in experiment [1] was 9.61; with rFVIIIFc [2], 9.56.

Turning to ESH8 (antibody), the pKd in experiment [1] was 9.98; with rFVIIIFc [2] it was 9.85.

In the case of ESH8 Fab, the pKd is 9.98 in experiment [3] and 9.85 with rFVIIIFc [4].

With GMA012 (antibody), the values for the pKd (in experiment [1]; in the experiment with rFVIIIFc [2]) were 9.49 and 9.32, respectively.

Regarding GMA8011 (antibody), the pKd was 10.05 in [5]; 10.09 with rFVIIIFc [6]; 10.04 in [1]; 10.06 with rFVIIIFc [2]; 10.07 in [7]; 10.04 with rFVIIIFc [8]. Further, the pKd was 10.00 in [9] and 10.04 with rFVIIIFc [10]. Moreover, the koff came out at 0.000138 s⁻¹ in experiment [5]; 0.00012 s⁻¹ in the experiment with rFVIIIFc [6]; 0.000131 s⁻¹ in experiment [7]; 0.000133 s⁻¹ with rFVIIIFc [8]; 0.000143 s⁻¹ in [9]; 0.000127 s⁻¹ with rFVIIIFc [10]. Further, the kon in [5] came to 1.54e+06 M⁻¹ s⁻¹; with rFVIIIFc [6] it was 1.49e+06 M⁻¹ s⁻¹; in experiment [7], 1.53e+06 M⁻¹ s⁻¹; with rFVIIIFc [8] it was 1.46e+06 M⁻¹ s⁻¹; in [9], 1.42e+06 M⁻¹ s⁻¹; with rFVIIIFc [10], 1.4e+06 M⁻¹ s⁻¹.

Take GMA8014 (antibody): the pKd in [11] is 9.93; in the experiment with rFVIIIFc [12] it was 9.86; in experiment [13], 9.94; in the experiment with rFVIIIFc [14], 9.92; in experiment [1], 9.93; in the experiment with rFVIIIFc [2], 9.93. In addition, the pKd (in experiment [15]; in the experiment with rFVIIIFc [16]) was 9.90 each time. The dissociation rate constant (koff) in experiment [11] amounted to 0.000131 s⁻¹; with rFVIIIFc [12], 0.000104 s⁻¹; in experiment [13] it was 0.000119 s⁻¹; with rFVIIIFc [14], 0.000104 s⁻¹; in experiment [15] it was 0.000127 s⁻¹; with rFVIIIFc [16], 0.000103 s⁻¹. The on-rate constant (kon) came to 1.12e+06 M⁻¹ s⁻¹ in experiment [11]; 746000 M⁻¹ s⁻¹ with rFVIIIFc [12]; 1.04e+06 M⁻¹ s⁻¹ in experiment [13]; 865000 M⁻¹ s⁻¹ with rFVIIIFc [14]; 1e+06 M⁻¹ s⁻¹ in [15]; 809000 M⁻¹ s⁻¹ with rFVIIIFc [16].

Take GMA8020 (antibody): the negative logarithm of the Kd (pKd) in experiment [5] is 10.14; with rFVIIIFc [6], 10.13; in experiment [1], 10.14; with rFVIIIFc [2] it was 10.17; in experiment [7], 10.11; with rFVIIIFc [8] it was 10.19. Moreover, the pKd in experiment [9] is 10.15; in the experiment with rFVIIIFc [10], 10.18. Moreover, the koff turned out to be 0.000124 s⁻¹ in experiment [5]; 0.000118 s⁻¹ with rFVIIIFc [6]; 0.000127 s⁻¹ in experiment [7]; 0.000102 s⁻¹ with rFVIIIFc [8]; 0.000119 s⁻¹ in experiment [9]; 0.00011 s⁻¹ with rFVIIIFc [10]. Moreover, the on-rate constant (kon) in experiment [5] came to 1.72e+06 M⁻¹ s⁻¹; in the experiment with rFVIIIFc [6], 1.59e+06 M⁻¹ s⁻¹; in experiment [7], 1.65e+06 M⁻¹ s⁻¹; with rFVIIIFc [8], 1.58e+06 M⁻¹ s⁻¹; in experiment [9], 1.7e+06 M⁻¹ s⁻¹; with rFVIIIFc [10] it was 1.66e+06 M⁻¹ s⁻¹.
